Results from PMC12060649, “Tuning the Dimensionality of Protein–Peptide Coassemblies to Build 2D Conductive Nanomaterials” (ACS Nano, 2025).

B1: E7 peptide (peptide)
peptide: EFEFEFEFEFEFE
notes: designed amphiphilic peptide, E6 with one more glutamic acid at the N-terminus; In the coassemblies it stood as pre-formed, sonicated self-assembled fibres; also called E7 fibers; E7 self-assembled fibers
B2: E9 peptide (peptide)
peptide: EEFEFEFEFEFEFEE
notes: designed amphiphilic peptide, E6 with additional glutamic acids at both termini
B3: 6-repeat peptide (FE)6, E6 (peptide)
peptide: FEFEFEFEFEFE
notes: designed amphiphilic peptide, six repeats of the dipeptide Phe-Glu; Forms supramolecular fibres; also called (FE)n with n = 6

Target: the molecule itself
Test: AFM + other: TEM; peptides in water at pH ≈ 5, sonicated 10 min, annealed at 80° for 30 min; AFM on mica at 1 mM, dry tapping mode; TEM at 10 μM, negative staining with uranyl acetate

Binding result, binds:
B1
B2
B3
